Test results published in patent publication US20240067696A1 (ZEALAND PHARMA A S, published 2024).
Non-standard residues stand in square brackets, D forms with d. Dab = NCC[C@H](N)C(=O)O; Aib = CC(C)(N)C(=O)O

B1: Compound 31 (peptide)
peptide: H-HSQGTFTSDYSKYLD[Aib]ARAESFVKWLEST-NH2
SMILES: CC(C)C[C@H](NC(=O)[C@H](Cc1c[nH]c2ccccc12)NC(=O)[C@H](CCCCN)NC(=O)[C@@H](NC(=O)[C@H](Cc1ccccc1)NC(=O)[C@H](CO)NC(=O)[C@H](CCC(=O)O)NC(=O)[C@H](C)NC(=O)[C@H](CCCNC(=N)N)NC(=O)[C@H](C)NC(=O)C(C)(C)NC(=O)[C@H](CC(=O)O)NC(=O)[C@H](CC(C)C)NC(=O)[C@H](Cc1ccc(O)cc1)NC(=O)[C@H](CCCCN)NC(=O)[C@H](CO)NC(=O)[C@H](Cc1ccc(O)cc1)NC(=O)[C@H](CC(=O)O)NC(=O)[C@H](CO)NC(=O)[C@@H](NC(=O)[C@H](Cc1ccccc1)NC(=O)[C@@H](NC(=O)CNC(=O)[C@H](CCC(N)=O)NC(=O)[C@H](CO)NC(=O)[C@@H](N)Cc1c[nH]cn1)[C@@H](C)O)[C@@H](C)O)C(C)C)C(=O)N[C@@H](CCC(=O)O)C(=O)N[C@@H](CO)C(=O)N[C@H](C(N)=O)[C@@H](C)O
B2: Compound 29 (peptide)
peptide: H-HSQGTFTSDYSKYLD[Aib]ARAKSFVEWLEKT-OH
SMILES: CC(C)C[C@H](NC(=O)[C@H](Cc1c[nH]c2ccccc12)NC(=O)[C@H](CCC(=O)O)NC(=O)[C@@H](NC(=O)[C@H](Cc1ccccc1)NC(=O)[C@H](CO)NC(=O)[C@H](CCCCN)NC(=O)[C@H](C)NC(=O)[C@H](CCCNC(=N)N)NC(=O)[C@H](C)NC(=O)C(C)(C)NC(=O)[C@H](CC(=O)O)NC(=O)[C@H](CC(C)C)NC(=O)[C@H](Cc1ccc(O)cc1)NC(=O)[C@H](CCCCN)NC(=O)[C@H](CO)NC(=O)[C@H](Cc1ccc(O)cc1)NC(=O)[C@H](CC(=O)O)NC(=O)[C@H](CO)NC(=O)[C@@H](NC(=O)[C@H](Cc1ccccc1)NC(=O)[C@@H](NC(=O)CNC(=O)[C@H](CCC(N)=O)NC(=O)[C@H](CO)NC(=O)[C@@H](N)Cc1c[nH]cn1)[C@@H](C)O)[C@@H](C)O)C(C)C)C(=O)N[C@@H](CCC(=O)O)C(=O)N[C@@H](CCCCN)C(=O)N[C@H](C(=O)O)[C@@H](C)O
B3: Compound 37 (peptide)
peptide: H-HSQGTFTSDYSKYLE[Aib]ARAEEFVKWLEST-OH
SMILES: CC(C)C[C@H](NC(=O)[C@H](Cc1c[nH]c2ccccc12)NC(=O)[C@H](CCCCN)NC(=O)[C@@H](NC(=O)[C@H](Cc1ccccc1)NC(=O)[C@H](CCC(=O)O)NC(=O)[C@H](CCC(=O)O)NC(=O)[C@H](C)NC(=O)[C@H](CCCNC(=N)N)NC(=O)[C@H](C)NC(=O)C(C)(C)NC(=O)[C@H](CCC(=O)O)NC(=O)[C@H](CC(C)C)NC(=O)[C@H](Cc1ccc(O)cc1)NC(=O)[C@H](CCCCN)NC(=O)[C@H](CO)NC(=O)[C@H](Cc1ccc(O)cc1)NC(=O)[C@H](CC(=O)O)NC(=O)[C@H](CO)NC(=O)[C@@H](NC(=O)[C@H](Cc1ccccc1)NC(=O)[C@@H](NC(=O)CNC(=O)[C@H](CCC(N)=O)NC(=O)[C@H](CO)NC(=O)[C@@H](N)Cc1c[nH]cn1)[C@@H](C)O)[C@@H](C)O)C(C)C)C(=O)N[C@@H](CCC(=O)O)C(=O)N[C@@H](CO)C(=O)N[C@H](C(=O)O)[C@@H](C)O
B4: Compound 32 (peptide)
peptide: H-HS[Dab](Ac)GTFTSDYSKYLD[Aib]ARAESFVKWLEST-OH
SMILES: CC(=O)NCC[C@H](NC(=O)[C@H](CO)NC(=O)[C@@H](N)Cc1c[nH]cn1)C(=O)NCC(=O)N[C@H](C(=O)N[C@@H](Cc1ccccc1)C(=O)N[C@H](C(=O)N[C@@H](CO)C(=O)N[C@@H](CC(=O)O)C(=O)N[C@@H](Cc1ccc(O)cc1)C(=O)N[C@@H](CO)C(=O)N[C@@H](CCCCN)C(=O)N[C@@H](Cc1ccc(O)cc1)C(=O)N[C@@H](CC(C)C)C(=O)N[C@@H](CC(=O)O)C(=O)NC(C)(C)C(=O)N[C@@H](C)C(=O)N[C@@H](CCCNC(=N)N)C(=O)N[C@@H](C)C(=O)N[C@@H](CCC(=O)O)C(=O)N[C@@H](CO)C(=O)N[C@@H](Cc1ccccc1)C(=O)N[C@H](C(=O)N[C@@H](CCCCN)C(=O)N[C@@H](Cc1c[nH]c2ccccc12)C(=O)N[C@@H](CC(C)C)C(=O)N[C@@H](CCC(=O)O)C(=O)N[C@@H](CO)C(=O)N[C@H](C(=O)O)[C@@H](C)O)C(C)C)[C@@H](C)O)[C@@H](C)O
B5: Compound 34 (peptide)
peptide: H-HSQGTFTSDYSKYLD[Aib]ARAEKFVEWLEST-OH
SMILES: CC(C)C[C@H](NC(=O)[C@H](Cc1c[nH]c2ccccc12)NC(=O)[C@H](CCC(=O)O)NC(=O)[C@@H](NC(=O)[C@H](Cc1ccccc1)NC(=O)[C@H](CCCCN)NC(=O)[C@H](CCC(=O)O)NC(=O)[C@H](C)NC(=O)[C@H](CCCNC(=N)N)NC(=O)[C@H](C)NC(=O)C(C)(C)NC(=O)[C@H](CC(=O)O)NC(=O)[C@H](CC(C)C)NC(=O)[C@H](Cc1ccc(O)cc1)NC(=O)[C@H](CCCCN)NC(=O)[C@H](CO)NC(=O)[C@H](Cc1ccc(O)cc1)NC(=O)[C@H](CC(=O)O)NC(=O)[C@H](CO)NC(=O)[C@@H](NC(=O)[C@H](Cc1ccccc1)NC(=O)[C@@H](NC(=O)CNC(=O)[C@H](CCC(N)=O)NC(=O)[C@H](CO)NC(=O)[C@@H](N)Cc1c[nH]cn1)[C@@H](C)O)[C@@H](C)O)C(C)C)C(=O)N[C@@H](CCC(=O)O)C(=O)N[C@@H](CO)C(=O)N[C@H](C(=O)O)[C@@H](C)O
B6: Compound 2 (peptide)
peptide: H-HSQGTFTSDYSKYLDSARAEDFVKWLEET-OH
B7: Compound 35 (peptide)
peptide: H-HSQGTFTSDYSKYLD[Aib]ARAEEFVAWLEST-OH
SMILES: CC(C)C[C@H](NC(=O)[C@H](Cc1c[nH]c2ccccc12)NC(=O)[C@H](C)NC(=O)[C@@H](NC(=O)[C@H](Cc1ccccc1)NC(=O)[C@H](CCC(=O)O)NC(=O)[C@H](CCC(=O)O)NC(=O)[C@H](C)NC(=O)[C@H](CCCNC(=N)N)NC(=O)[C@H](C)NC(=O)C(C)(C)NC(=O)[C@H](CC(=O)O)NC(=O)[C@H](CC(C)C)NC(=O)[C@H](Cc1ccc(O)cc1)NC(=O)[C@H](CCCCN)NC(=O)[C@H](CO)NC(=O)[C@H](Cc1ccc(O)cc1)NC(=O)[C@H](CC(=O)O)NC(=O)[C@H](CO)NC(=O)[C@@H](NC(=O)[C@H](Cc1ccccc1)NC(=O)[C@@H](NC(=O)CNC(=O)[C@H](CCC(N)=O)NC(=O)[C@H](CO)NC(=O)[C@@H](N)Cc1c[nH]cn1)[C@@H](C)O)[C@@H](C)O)C(C)C)C(=O)N[C@@H](CCC(=O)O)C(=O)N[C@@H](CO)C(=O)N[C@H](C(=O)O)[C@@H](C)O
B8: Compound 33 (peptide)
peptide: H-HSQGTFTSDYSKYLD[Aib]ARAEEFVSWLEKT-OH
SMILES: CC(C)C[C@H](NC(=O)[C@H](Cc1c[nH]c2ccccc12)NC(=O)[C@H](CO)NC(=O)[C@@H](NC(=O)[C@H](Cc1ccccc1)NC(=O)[C@H](CCC(=O)O)NC(=O)[C@H](CCC(=O)O)NC(=O)[C@H](C)NC(=O)[C@H](CCCNC(=N)N)NC(=O)[C@H](C)NC(=O)C(C)(C)NC(=O)[C@H](CC(=O)O)NC(=O)[C@H](CC(C)C)NC(=O)[C@H](Cc1ccc(O)cc1)NC(=O)[C@H](CCCCN)NC(=O)[C@H](CO)NC(=O)[C@H](Cc1ccc(O)cc1)NC(=O)[C@H](CC(=O)O)NC(=O)[C@H](CO)NC(=O)[C@@H](NC(=O)[C@H](Cc1ccccc1)NC(=O)[C@@H](NC(=O)CNC(=O)[C@H](CCC(N)=O)NC(=O)[C@H](CO)NC(=O)[C@@H](N)Cc1c[nH]cn1)[C@@H](C)O)[C@@H](C)O)C(C)C)C(=O)N[C@@H](CCC(=O)O)C(=O)N[C@@H](CCCCN)C(=O)N[C@H](C(=O)O)[C@@H](C)O
B9: Compound 30 (peptide)
peptide: H-HSQGTFTSDYSKYLD[Aib]ARAESFVKWLESA-OH
SMILES: CC(C)C[C@H](NC(=O)[C@H](Cc1c[nH]c2ccccc12)NC(=O)[C@H](CCCCN)NC(=O)[C@@H](NC(=O)[C@H](Cc1ccccc1)NC(=O)[C@H](CO)NC(=O)[C@H](CCC(=O)O)NC(=O)[C@H](C)NC(=O)[C@H](CCCNC(=N)N)NC(=O)[C@H](C)NC(=O)C(C)(C)NC(=O)[C@H](CC(=O)O)NC(=O)[C@H](CC(C)C)NC(=O)[C@H](Cc1ccc(O)cc1)NC(=O)[C@H](CCCCN)NC(=O)[C@H](CO)NC(=O)[C@H](Cc1ccc(O)cc1)NC(=O)[C@H](CC(=O)O)NC(=O)[C@H](CO)NC(=O)[C@@H](NC(=O)[C@H](Cc1ccccc1)NC(=O)[C@@H](NC(=O)CNC(=O)[C@H](CCC(N)=O)NC(=O)[C@H](CO)NC(=O)[C@@H](N)Cc1c[nH]cn1)[C@@H](C)O)[C@@H](C)O)C(C)C)C(=O)N[C@@H](CCC(=O)O)C(=O)N[C@@H](CO)C(=O)N[C@@H](C)C(=O)O
B10: Compound 36 (peptide)
peptide: H-HSQGTFTSDYSKYLD[Aib]ARAEEFVKWLEET-OH
SMILES: CC(C)C[C@H](NC(=O)[C@H](Cc1c[nH]c2ccccc12)NC(=O)[C@H](CCCCN)NC(=O)[C@@H](NC(=O)[C@H](Cc1ccccc1)NC(=O)[C@H](CCC(=O)O)NC(=O)[C@H](CCC(=O)O)NC(=O)[C@H](C)NC(=O)[C@H](CCCNC(=N)N)NC(=O)[C@H](C)NC(=O)C(C)(C)NC(=O)[C@H](CC(=O)O)NC(=O)[C@H](CC(C)C)NC(=O)[C@H](Cc1ccc(O)cc1)NC(=O)[C@H](CCCCN)NC(=O)[C@H](CO)NC(=O)[C@H](Cc1ccc(O)cc1)NC(=O)[C@H](CC(=O)O)NC(=O)[C@H](CO)NC(=O)[C@@H](NC(=O)[C@H](Cc1ccccc1)NC(=O)[C@@H](NC(=O)CNC(=O)[C@H](CCC(N)=O)NC(=O)[C@H](CO)NC(=O)[C@@H](N)Cc1c[nH]cn1)[C@@H](C)O)[C@@H](C)O)C(C)C)C(=O)N[C@@H](CCC(=O)O)C(=O)N[C@@H](CCC(=O)O)C(=O)N[C@H](C(=O)O)[C@@H](C)O

Molecular target: human glucagon receptor (human, UniProt P47871 26-477)
Sequence (P47871 26-477): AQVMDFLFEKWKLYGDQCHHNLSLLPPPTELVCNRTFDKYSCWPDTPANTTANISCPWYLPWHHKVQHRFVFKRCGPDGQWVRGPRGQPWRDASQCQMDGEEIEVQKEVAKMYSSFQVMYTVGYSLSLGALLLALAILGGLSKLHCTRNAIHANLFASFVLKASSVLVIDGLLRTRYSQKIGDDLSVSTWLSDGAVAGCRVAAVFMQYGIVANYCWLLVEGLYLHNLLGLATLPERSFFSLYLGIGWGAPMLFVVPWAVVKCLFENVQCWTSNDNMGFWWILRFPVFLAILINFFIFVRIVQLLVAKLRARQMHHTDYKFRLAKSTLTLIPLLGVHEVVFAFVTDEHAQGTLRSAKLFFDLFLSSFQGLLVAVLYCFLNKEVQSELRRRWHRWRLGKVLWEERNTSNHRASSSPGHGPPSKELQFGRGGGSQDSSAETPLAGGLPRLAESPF
Assay: cell-based or functional assay

| Binder | GCG-R EC50 in vitro [nM] (cAMP, AlphaScreen, HEK293 cells expressing human Glucagon-R) |
| --- | --- |
| B1 | 0.0072 |
| B2 | 0.023 |
| B3 | 0.094 |
| B4 | 0.0093 |
| B5 | 0.028 |
| B6 | 0.18 |
| B7 | 0.014 |
| B8 | 0.044 |
| B9 | 0.016 |
| B10 | 0.01 |
